Assay results taken from patent US20200140562A1 (Innovent, published 2020).

Tests used:
[1] = target: T1, human OX40 on cells (CHO-hOX40, 293HEK-hOX40, Jurkat-hOX40, activated primary CD4+ T cells) (human, UniProt P43489 29-277); experiment: flow cytometry, CHO-hOX40, 0.048828125 nM
T1 construct: whole, on cells; The cell type is told in each assay; also called CHO-OX40
T1 sequence (looked up): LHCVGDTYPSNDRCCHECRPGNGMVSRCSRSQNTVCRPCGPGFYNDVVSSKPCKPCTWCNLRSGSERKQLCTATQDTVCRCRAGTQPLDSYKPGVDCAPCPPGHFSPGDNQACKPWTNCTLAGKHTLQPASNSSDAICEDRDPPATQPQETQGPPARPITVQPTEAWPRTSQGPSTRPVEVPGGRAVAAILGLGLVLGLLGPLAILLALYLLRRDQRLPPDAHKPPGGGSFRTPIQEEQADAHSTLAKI

[2] = target: T1, human OX40 on cells (CHO-hOX40, …); experiment: flow cytometry, CHO-hOX40, 6.25 nM
[3] = target: T1, human OX40 on cells (CHO-hOX40, …); experiment: flow cytometry, CHO-hOX40, 25 nM
[4] = target: T1, human OX40 on cells (CHO-hOX40, …); experiment: flow cytometry, 293HEK-hOX40, 1.6 nM
[5] = target: T1, human OX40 on cells (CHO-hOX40, …); experiment: flow cytometry, activated CD4+ T cells, donor 2, 100 nM
[6] = target: T1, human OX40 on cells (CHO-hOX40, …); experiment: flow cytometry, CHO-hOX40, 0.390625 nM
[7] = target: T1, human OX40 on cells (CHO-hOX40, …); experiment: flow cytometry, activated CD4+ T cells, donor 1, 100 nM
[8] = target: T1, human OX40 on cells (CHO-hOX40, …); experiment: flow cytometry, 293HEK-hOX40, 8 nM
[9] = target: T1, human OX40 on cells (CHO-hOX40, …); experiment: flow cytometry, CHO-hOX40, 3.125 nM
[10] = target: T1, human OX40 on cells (CHO-hOX40, …); experiment: flow cytometry, CHO-hOX40, 100 nM
[11] = target: T1, human OX40 on cells (CHO-hOX40, …); experiment: flow cytometry, 293HEK-hOX40, 200 nM
[12] = target: T1, human OX40 on cells (CHO-hOX40, …); experiment: flow cytometry, 293HEK-hOX40 cells
[13] = target: T1, human OX40 on cells (CHO-hOX40, …); experiment: flow cytometry, CHO-hOX40, 0.1953125 nM
[14] = target: T1, human OX40 on cells (CHO-hOX40, …); experiment: flow cytometry, CHO-hOX40, 0.024414063 nM
[15] = target: T1, human OX40 on cells (CHO-hOX40, …); experiment: flow cytometry, CHO-hOX40, 1.5625 nM
[16] = target: T1, human OX40 on cells (CHO-hOX40, …); experiment: flow cytometry, CHO-hOX40, 200 nM
[17] = target: T1, human OX40 on cells (CHO-hOX40, …); experiment: flow cytometry, CHO-hOX40, 100 nM blocker, competitor OX40L-hFc-fluorescein
[18] = target: T1, human OX40 on cells (CHO-hOX40, …); experiment: flow cytometry, CHO-hOX40, 12.5 nM
[19] = target: T1, human OX40 on cells (CHO-hOX40, …); experiment: flow cytometry, CHO-hOX40, 0.09765625 nM
[20] = target: T1, human OX40 on cells (CHO-hOX40, …); experiment: flow cytometry, CHO-hOX40, 50 nM
[21] = target: T1, human OX40 on cells (CHO-hOX40, …); experiment: flow cytometry, CHO-hOX40, 0.78125 nM
[22] = target: T1, human OX40 on cells (CHO-hOX40, …); experiment: flow cytometry, 293HEK-hOX40, 40 nM

MFI [1]: 2020 MFI
MFI [2]: 1600 MFI
MFI [3]: 1560 MFI
MFI [4]: 5630 MFI
MFI [5]: 1710 MFI
MFI [6]: 1710 MFI
MFI [7]: 6310 MFI
MFI [8]: 5310 MFI
MFI [9]: 1750 MFI
MFI [10]: 1720 MFI
MFI [11]: 11100 MFI
binding result [12]: no binding (tested: 200 nM)
MFI [13]: 1510 MFI
MFI [14]: 2070 MFI
MFI [15]: 1930 MFI
MFI [16]: 2820 MFI
MFI of OX40L signal on CHO-OX40 cells [17]: 35100 MFI
MFI [18]: 1630 MFI
MFI [19]: 2380 MFI
MFI [20]: 1700 MFI
MFI [21]: 1680 MFI
MFI [22]: 25200 MFI
B1: IgG1 control (antibody, V domains shown)
VH: EVRLLESGGGLVQPGGSLRLSCAASGFTFSNYAMGWVRQAPGKGLEWVSAISGSGGSTYYADSVKGRFTTSRDDSKNALYLQMNSLRAEDTAVYYCARGGPGWYAADVWGQGTTVTVSS
VL: DIQMTQSPSSLSASVGDRVTITCRASQSISSYLNWYQQKPGKAPKLLIYAASSLQSGVPSRFSGSGSGTDFTLTISSLQPEDFATYYCQQADLPAFAFGGGTKVEIKR
notes: Negative control; The printed entries seem to begin with a leader peptide
